Our source for the Siglec-6 (ABC-isotype) values is patent US20250011422A1.

Experiment [1] concerns the target human Siglec-6 on the cell surface (U937, MEC1-002, MEC1-hS6, primary CLL cells) (human) (UniProt O43699). The experiment can be described thus: quantitative flow cytometry, primary CLL cells (live, CD20+ CD5+), CLL patient 4973. (In flow cytometry, cells or beads pass a laser one at a time.)
Experiment [2] has the same target. The experiment in a line: quantitative flow cytometry, primary CLL cells (live, CD20+ CD5+), CLL patient 2691.
Experiment [3] shares this target. The experiment can be described thus: quantitative flow cytometry, primary CLL cells (live, CD20+ CD5+), CLL patient 4705.
The target is the same in experiment [4]. The experiment in a line: quantitative flow cytometry, primary CLL cells (live, CD20+ CD5+), CLL patient 3071.
Experiment [5] has the same target. The experiment in a line: quantitative flow cytometry, primary CLL cells (live, CD20+ CD5+), CLL patient 8242.
For experiment [6] the target is unchanged. The experiment can be described thus: quantitative flow cytometry, primary CLL cells (live, CD20+ CD5+), CLL patient 11944.
Experiment [7] shares this target. The experiment can be described thus: quantitative flow cytometry with bead calibration standard, cell line MEC1-002.

Sequence of human Siglec-6 on the cell surface (U937, MEC1-002, MEC1-hS6, primary CLL cells) (human) (O43699 27-453): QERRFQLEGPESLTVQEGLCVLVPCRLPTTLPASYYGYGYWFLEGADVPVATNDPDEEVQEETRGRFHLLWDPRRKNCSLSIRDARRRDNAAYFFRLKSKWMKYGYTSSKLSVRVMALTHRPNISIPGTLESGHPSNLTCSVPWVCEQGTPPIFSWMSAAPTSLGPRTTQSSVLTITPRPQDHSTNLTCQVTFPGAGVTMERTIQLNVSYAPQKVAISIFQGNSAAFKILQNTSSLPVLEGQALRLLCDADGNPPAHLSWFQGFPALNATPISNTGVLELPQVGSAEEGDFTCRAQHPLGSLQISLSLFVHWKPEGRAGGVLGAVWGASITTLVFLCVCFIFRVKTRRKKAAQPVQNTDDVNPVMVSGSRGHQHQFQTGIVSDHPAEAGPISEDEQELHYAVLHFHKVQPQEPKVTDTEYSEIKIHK

With “commercial mouse anti-human Siglec-6 mAb clone 767329 (R&D Systems) (antibody)”, the Siglec-6 (ABC-isotype) in experiment [1] was found to be 3670 ABC; in experiment [2], 6040 ABC; in experiment [3], 2430 ABC; in experiment [4], 1540 ABC; in experiment [5], 843 ABC; in experiment [6], 3580 ABC. Also, the Siglec-6 (ABC-isotype) in experiment [7] was 1450 ABC.
